Source: patent publication US20220119467A1
No end group written: not given here.

Legend:
Test in all cases: cell-based or functional assay
[1] = biological target: T1, dCas9-VP64-RFP-degronSwitcha
T1 sequence: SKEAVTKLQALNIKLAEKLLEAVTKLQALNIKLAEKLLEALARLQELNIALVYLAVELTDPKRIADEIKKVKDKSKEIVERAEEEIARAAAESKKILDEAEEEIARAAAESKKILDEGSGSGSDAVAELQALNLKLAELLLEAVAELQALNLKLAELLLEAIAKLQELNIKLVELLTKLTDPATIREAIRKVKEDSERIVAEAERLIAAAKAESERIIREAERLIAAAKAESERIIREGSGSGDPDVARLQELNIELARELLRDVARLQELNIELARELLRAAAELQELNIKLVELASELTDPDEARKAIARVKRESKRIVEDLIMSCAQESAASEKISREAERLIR

[2] = biological target: T2, YFP-degronSwitcha
T2 sequence: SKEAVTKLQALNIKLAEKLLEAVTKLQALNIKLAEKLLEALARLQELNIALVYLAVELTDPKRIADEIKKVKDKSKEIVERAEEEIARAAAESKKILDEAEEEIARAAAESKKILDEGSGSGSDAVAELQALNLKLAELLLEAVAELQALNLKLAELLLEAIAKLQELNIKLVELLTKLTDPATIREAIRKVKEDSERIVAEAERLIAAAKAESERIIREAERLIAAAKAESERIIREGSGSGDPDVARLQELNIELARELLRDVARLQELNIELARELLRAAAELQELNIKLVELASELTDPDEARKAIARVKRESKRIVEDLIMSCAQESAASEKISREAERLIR

[3] = biological target: SynTF-RFP-degronSwitcha

B1: Keya-BFP (designed binder, not shown: large carriers)
chain: EARKAIARVKRESKRIVEDAERLIREAAAASEKISREAERLIREAAAASEKISRE
modifications: not fully specified (C-terminus); also: linker to BFP not given here
decrease in RFP fluorescence at 31.25 nM E2, flow cytometry, S. cerevisiae [1]: 78% | decrease in pTet7x-YFP reporter fluorescence at 31.25 nM E2, flow cytometry, S. cerevisiae [1]: 41% | YFP fluorescence at steady state, flow cytometry, S. cerevisiae [2]: < 73%

B2: keya-BFP-NLS (designed binder, not shown: large carriers)
chain: EARKAIARVKRESKRIVEDAERLIREAAAASEKISREAERLIREAAAASEKISRE
modifications: not fully specified (C-terminus); also: BFP and NLS sequences not given here
decrease in RFP fluorescence at 31.25 nM E2, flow cytometry, S. cerevisiae [3]: 61% | decrease in pSynTF-YFP reporter fluorescence at 31.25 nM E2, flow cytometry, S. cerevisiae [3]: 82%
